Source: the supplement of paper PMC11246515
± gives the standard deviation of the averaged measurements.

Experiment: total protein half-life in vivo (active degradation + dilution); higher = more stable protein
[1] = E. coli NCM3722 delta-clpP delta-lon delta-hslV, growth: N-lim chemostat, doubling time 6 h
[2] = E. coli NCM3722 delta-clpP, growth: N-lim chemostat, doubling time 6 h
[3] = wild type E. coli NCM3722, growth: C-lim chemostat, doubling time 3 h
[4] = wild type E. coli NCM3722, growth: C-lim chemostat, doubling time 12 h
[5] = E. coli NCM3722 delta-hslV, growth: N-lim chemostat, doubling time 6 h
[6] = E. coli NCM3722 delta-lon, growth: N-lim chemostat, doubling time 6 h
[7] = E. coli NCM3722 delta-smpB, growth: N-lim chemostat, doubling time 6 h
[8] = wild type E. coli NCM3722, growth: C-lim chemostat, doubling time 6 h
[9] = wild type E. coli NCM3722, growth: N-lim chemostat, doubling time 6 h
[10] = wild type E. coli NCM3722, growth: N-lim chemostat, doubling time 12 h
[11] = wild type E. coli NCM3722, growth: P-lim chemostat, doubling time 6 h
[12] = wild type E. coli NCM3722, growth: P-lim chemostat, doubling time 12 h

| Sequence | total protein half-life in vivo [1] | total protein half-life in vivo [2] | total protein half-life in vivo [3] | total protein half-life in vivo [4] | total protein half-life in vivo [5] | total protein half-life in vivo [6] | total protein half-life in vivo [7] | total protein half-life in vivo [8] | total protein half-life in vivo [9] | total protein half-life in vivo [10] | total protein half-life in vivo [11] | total protein half-life in vivo [12] |
| --- | --- | --- | --- | --- | --- | --- | --- | --- | --- | --- | --- | --- |
| MLVYWLDIVGTAVFAISGVLLAGKLRMDPFGVLVLGVVTAVGGGTIRDMALDHGPVFWVKDPTDLVVAMVTSMLTIVLVRQPRRLPKWMLPVLDAVGLAVFVGIGVNKAFNAEAGPLIAVCMGVITGVGGGIIRDVLAREIPMILRTEIYATACIIGGIVHATAYYTFSVPLETASMMGMVVTLLIRLAAIRWHLKLPTFALDENGR [P0AFP0] | 6.04 h | 5.6 h | 2.95 h | 9.77 h |  |  |  |  |  |  |  |  |
| MKWLCSVGIAVSLALQPALADDLFGNHPLTPEARDAFVTELLKKMTVDEKIGQLRLISVGPDNPKEAIREMIKDGQVGAIFNTVTRQDIRAMQDQVMELSRLKIPLFFAYDVLHGQRTVFPISLGLASSFNLDAVKTVGRVSAYEAADDGLNMTWAPMVDVSRDPRWGRASEGFGEDTYLTSTMGKTMVEAMQGKSPADRYSVMTSVKHFAAYGAVEGGKEYNTVDMSPQRLFNDYMPPYKAGLDAGSGAVMVALNSLNGTPATSDSWLLKDVLRDQWGFKGITVSDHGAIKELIKHGTAADPEDAVRVALKSGINMSMSDEYYSKYLPGLIKSGKVTMAELDDAARHVLNVKYDMGLFNDPYSHLGPKESDPVDTNAESRLHRKEAREVARESLVLLKNRLETLPLKKSATIAVVGPLADSKRDVMGSWSAAGVADQSVTVLTGIKNAVGENGKVLYAKGANVTSDKGIIDFLNQYEEAVKVDPRSPQEMIDEAVQTAKQSDVVVAVVGEAQGMAHEASSRTDITIPQSQRDLIAALKATGKPLVLVLMNGRPLALVKEDQQADAILETWFAGTEGGNAIADVLFGDYNPSGKLPMSFPRSVGQIPVYYSHLNTGRPYNADKPNKYTSRYFDEANGALYPFGYGLSYTTFTVSDVKLSAPTMKRDGKVTASVQVTNTGKREGATVVQMYLQDVTASMSRPVKQLKGFEKITLKPGETQTVSFPIDIEALKFWNQQMKYDAEPGKFNVFIGTDSARVKKGEFELL | 6.82 ± 0.31 h | 6.82 ± 0.92 h | 3.14 ± 0.092 h | 14.2 ± 1.2 h | 6.51 ± 0.073 h | 6.84 ± 0.088 h | 5.91 ± 0.13 h | 6.17 ± 0.12 h | 6.21 ± 0.43 h | 13.9 ± 0.67 h | 6.21 ± 0.027 h | 14.5 ± 1.1 h |
| MKNNPLISIYMPTWNRQQLAIRAIKSVLRQDYSNWEMIIVDDCSTSWEQLQQYVTALNDPRITYIHNDINSGACAVRNQAIMLAQGEYITGIDDDDEWTPNRLSVFLAHKQQLVTHAFLYANDYVCQGEVYSQPASLPLYPKSPYSRRLFYKRNIIGNQVFTWAWRFKECLFDTELKAAQDYDIFLRMVVEYGEPWKVEEATQILHINHGEMQITSSPKKFSGYFHFYRKHKDKFDRASKKYQLFTLYQIRNKRMTWRTLLTLLSVRNGKRLADGIRGR | 3.18 h |  |  |  |  | 2.71 ± 0.069 h | 1.7 ± 0.1 h |  |  |  |  |  |
| MQYWGKIIGVAVALLMGGGFWGVVLGLLIGHMFDKARSRKMAWFANQRERQALFFATTFEVMGHLTKSKGRVTEADIHIASQLMDRMNLHGASRTAAQNAFRVGKSDNYPLREKMRQFRSVCFGRFDLIRMFLEIQIQAAFADGSLHPNERAVLYVIAEELGISRAQFDQFLRMMQGGAQFGGGYQQQTGGGNWQQAQRGPTLEDACNVLGVKPTDDATTIKRAYRKLMSEHHPDKLVAKGLPPEMMEMAKQKAQEIQQAYELIKQQKGFK |  | 6.42 ± 1.5 h | 2.98 ± 0.14 h | 11.2 ± 0.66 h |  | 5.92 ± 0.42 h | 5.91 ± 0.58 h | 5.97 ± 0.2 h | 6.24 ± 0.77 h | 11.8 ± 1 h | 6.61 ± 0.12 h | 12.7 ± 1 h |
| MIKNLPQIVLLNIVGLALFLSWYIPVNHGFWLPIDADIFYFFNQKLVESKAFLWLVALTNNRAFDGCSLLAMGMLMLSFWLKENAPGRRRIVIIGLVMLLTAVVLNQLGQALIPVKRASPTLTFTDINRVSELLSVPTKDASRDSFPGDHGMMLLIFSAFMWRYFGKVAGLIALIIFVVFAFPRVMIGAHWFTDIIVGSMTVILIGLPWVLLTPLSDRLITFFDKSLPGKNKHFQNK | 6.44 ± 0.069 h |  | > 4 h |  | 5.96 h | 5.5 ± 0.33 h | 4.98 ± 0.75 h | 5.87 ± 0.17 h | 5.91 h | 9.71 h | 5.76 ± 0.068 h | 14.4 h |
| MYEFDWSSIVPSLPYLLDGLVITLKITVTAVVIGILWGTMLAVMRLSSFAPVAWFAKAYVNVFRSIPLVMVLLWFYLIVPGFLQNVLGLSPKNDIRLISAMVAFSMFEAAYYSEIIRAGIQSISRGQSSAALALGMTHWQSMKLIILPQAFRAMVPLLLTQGIVLFQDTSLVYVLSLADFFRTASTIGERDGTQVEMILFAGFVYFVISLSASLLVSYLKRRTA [P0AER5] | 7.04 h | 5.18 h |  | 12.6 ± 1.8 h | 6.35 h | 5.47 h | 5.15 ± 0.1 h | 6.05 ± 0.51 h | 5.68 ± 0.1 h | 9.5 ± 4.4 h | 6.36 ± 0.33 h | 11.4 ± 0.52 h |
